{"source": "patent US10829528B2", "about": "“Therapeutic agents for neurological and psychiatric disorders” (VIB VZW, priority 2016, dated 2020)", "molecules": {"B1": {"name": "sAPPα: soluble amyloid precursor protein α ectodomain; mouse APP695 18-612aa, Fc tag cleaved (protein)", "chain": "LEVPTDGNAGLLAEPQIAMFCGKLNMHMNVQNGKWESDPSGTKTCIGTKEGILQYCQEVYPELQITNVVEANQPVTIQNWCKRGRKQCKTHTHIVIPYRCLVGEFVSDALLVPDKCKFLHQERMDVCETHLHWHTVAKETCSEKSTNLHDYGMLLPCGIDKFRGVEFVCCPLAEESDSVDSADAEEDDSDVWWGGADTDYADGGEDKVVEVAEEEEVADVEEEEADDDEDVEDGDEVEEEAEEPYEEATERTTSTATTTTTTTESVEEVVRVPTTAASTPDAVDKYLETPGDENEHAHFQKAKERLEAKHRERMSQVMREWEEAERQAKNLPKADKKAVIQHFQEKVESLEQEAANERQQLVETHMARVEAMLNDRRRLALENYITALQAVPPRPHHVFNMLKKYVRAEQKDRQHTLKHFEHVRMVDPKKAAQIRSQVMTHLRVIYERMNQSLSLLYNVPAVAEEIQDEVDELLQKEQNYSDDVLANMISEPRISYGNDALMPSLTETKTTVELLPVNGEFSLDDLQPWHPFGVDSVPANTENEVEPVDARPAADRGLTTRPGSGLTNIKTEEISEVKMDAEFGHDSGFEVRHQK"}}, "key": {"[1]": {"biological_target": "T1, sushi1 domain of GABABR1a (Homo sapiens, UniProt Q9UBS5)", "T1 construct": "made in house", "T1 sequence (Q9UBS5 26-97)": "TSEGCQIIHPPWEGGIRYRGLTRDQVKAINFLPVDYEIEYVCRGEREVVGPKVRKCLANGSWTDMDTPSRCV", "assay": "BioLayer Interferometry binding of sAPPα to sushi domains", "excerpt": "(§1) We first determined which GABAB subunit and isoform sAPPα bound. The GABABR is comprised of two subunits, the GABABR1 and the GABABR2 subunit. GABABR1 is present as two main isoforms (1a and 1b), with the only difference between these isoforms being the presence of two protein-binding sushi repeats in the ectodomain of GABABR1a (FIG. 1A-B). […] The sequence of the Sushi domain 1 is […]."}, "[2]": {"biological_target": "T1, sushi1 domain of GABABR1a", "assay": "Isothermal titration calorimetry (ITC) with purified sushi1", "type": "binding", "conditions": "25° C., read-out: dissociation constant (KD)", "description": "as §1\nAll ITC experiments were carried out on a MicroCal iTC200 system. For ITC experiments involving APP constructs expressed in HEK293 cells, the purified GABABR1a-Sushi1 domain, sAPPα, CuBDAcD, AcD and CuBD constructs were buffer-exchanged by size exclusion chromatography in 20 mM Na-HEPES pH 7.0, 150 mM NaCl supplemented with 5 mM CaCl2. Concentrated samples were diluted and degassed before the experiment at the concentrations reported in the FIG. legends. sAPP fragments (all of them at 30 μM) were placed in the MicroCal sample cell and matching buffer was placed in the reference cell. Sushi1 (300 μM) was in the syringe and was injected into the cell in a series of 1 μL injections at 25° C. All the datasets were subtracted with a reference data consisting of serial injections of Sushi1 in the cell, containing buffer only under the same conditions. For ITC experiments involving synthetic APP peptides, the Sushi-1 protein was dialysed overnight to PBS buffer. […]"}, "[3]": {"test_system": "primary hippocampal neurons", "assay": "mEPSCs & mIPSCs in cultured primary hippocampal neurons (wild type)", "type": "cell-based, mouse", "description": "mEPSCs & mIPSCs are measured in cultured primary hippocampal neurons at baseline and following acute application of agonists. Excitatory terminals selectively express the sushi domain-containing GABABR1a isoform (ref18), where it functions to inhibit neurotransmitter release (ref 24). Acute exposure of primary hippocampal neurons from wild type mice to 30μM baclofen, a GABABR agonist, or 250 nM sAPPα (Fc cleaved) reduces the frequency of miniature excitatory postsynaptic currents (mEPSCs) by 68% (FIG. 8 a,b) and 39% (FIG. 8 c,d), respectively, with no effect on mEPSC amplitude (FIG. 8e). […] Acute application of 30 μM baclofen or 250 nM purified sAPPα reduces the frequency of miniature inhibitory postsynaptic currents (mIPSCs) by 63% (FIG. 8a, 9a) and 44% (FIG. 8c, 9b), respectively, which is blocked by pretreatment with the GABABR antagonist CGP55845 (CGP, 5 μM) (FIG. 8f, 9d). Application of sAPPα causes a minor (14%) reduction on mIPSC amplitude (FIG. 8e, 9c). […] Baclofen is known to reduce the frequencies of mEPSCs and mIPSCs, which we have also confirmed. […] To confirm that the agonist is acting through GABABR1a, the agonist is tested in cultures with shRNA mediated knockdown of GABABR1a or antisense oligonucleotides mediated exon skipping of the exon encoding the Sushi domain 1 of GABABR1a. Antagonists are tested by treatment in combination with the agonist, Baclofen. […] As an antagonist we test an antibody against the sushi domain sequence (SEQ ID No: 5): […] SWTDMDTPSRCV. An antibody specifically binding to this domain which acts as an antagonist increases the frequencies of mEPSCs and mIPSCs. sAPPα also reduces mEPSC and mIPSC frequency in App/Aplp1 dKO cultures (FIG. 8j, 9f), excluding the possibility that sAPPα interferes with a complex of full-length APP and GABABR1 to exert its effect on GABABR signaling.\nHippocampal neurons were cultured from E18 C57/B16 wild type mice or APP/APLP1 dKO mice (provided by Ulrike Muller46) and plated on poly-D-lysine (Millipore), and laminin (Invitrogen) coated coverslips (Nalge Nunc International). Neurons were maintained in Neurobasal medium (Invitrogen) supplemented with B27, glucose, glutamax, penicillin/streptomycin (Invitrogen) and 25 μM β-mercaptoethanol.\nSingle neurons from wild type or APP/APLP1 null mutant embryos (E18) were recorded within the large neuronal network at DIV 12-15. The intracellular whole-cell pipette medium contained (in mM): 136 KCl, 18 HEPES, 4 Na-ATP, 4.6 MgCl2, 15 Creatine Phosphate, 1 EGTA and 50 U/ml Phospocreatine Kinase (300 mOsm, pH 7.30). Regular external solution contained 2 mM/2 mM Ca2+/Mg2+(in mM: 140 NaCl, 2.4 KCl, 2 CaCl2), 2 MgCl2, 10 HEPES, 14 Glucose (300 mOsm, pH 7.30)) and TTX (1 μM). Pharmacological reagents (30 μM baclofen, 5 μM CGP), sAPLP1, full length sAPP and sAPP derived peptides (250 nM each) were bath applied (dissolved in external medium described above) using a separate gravity driven application inlet. Recordings were done in whole cell voltage clamp configuration at −70 mV with a double EPC-10 amplifier (HEKA Elektronik) under control of Patchmaster v2×32 software (HEKA Elektronik). Currents were low-pass filtered at 3 kHz and stored at 20 kHz. Patch pipettes were pulled from borosilicate glass using a multi-step puller (P-1000; Sutter Instruments). Pipette resistance ranged from 3 to 5 MΩ and was compensated to 75-80%. Only cells with series resistances <15 MΩ were included in analysis. All recordings were done at room temperature. Spontaneous events were detected using Mini Analysis program (Synaptosoft). mEPSCs and mIPSCs were separated on the basis of their distinct decay kinetics, using a threshold of 5 ms47. Baseline was determined from an average of 60 sec of recordings prior to protein or drug treatment. Effect of treatment was determined from an average of 30 sec recordings after 140 sec of protein or drug treatment."}}}
{"molecule": "B1", "values": [{"measurement": "binding of sAPPα to Sushi 1 domain by BioLayer Interferometry", "setting": "[1]", "result": "direct binding"}, {"measurement": "Kd", "setting": "[2]", "result": 431, "unit": "nM"}, {"measurement": "reduction of mIPSC amplitude", "setting": "[3]; 250 nM sAPPα", "result": 14, "unit": "%"}, {"measurement": "effect on mEPSC amplitude", "setting": "[3]; 250 nM, acute exposure", "result": "no effect"}, {"measurement": "reduction of mIPSC frequency", "setting": "[3]; acute application, 30 μM baclofen, 250 nM proteins", "result": 44, "unit": "%"}, {"measurement": "reduction of mEPSC frequency", "setting": "[3]; acute exposure, 30 μM baclofen or 250 nM sAPPα (Fc cleaved), wild type mice", "result": 39, "unit": "%"}]}
